Experimental data published in US10174359 (JAPANESE FOUNDATION FOR CANCER RESEARCH, dated 2019).

Target: T1, myc-tagged mouse separase, wild-type (WT) (mouse, UniProt P60330 1-2118)
T1 construct: Studied in HeLa cell extracts by co-immunoprecipitation and immunoblot; also called wild-type separase; wild-type mouse separase; not shown: myc tag
Assay: immunoprecipitation with securin from anaphase cell extract, immunoblot for separase-myc (FIG. 7A)
Procedure: Typically, the cell extracts are mixed with […] of agarose beads conjugated to anti-myc tag (manufactured by MBL), or protein A beads (manufactured by Bio-RAD) coupled to the desired antibodies, and incubated for 2 hr at 4° C., then washed three times with IP buffer and three times with TBS-T (150 mM sodium chloride, 20 mM Tris pH 8.0, 0.05% (v/v) Tween 20) and then subjected to analysis.
In the wild-type mouse separase replaced cell and SA mutant mouse separase replaced cell, the cell cycle arrest by Monastrol, was cancelled. Forty minutes after cancellation of the cell cycle arrest by Monastrol a cell population enriched in anaphase cells was prepared. Then, a cell extract was obtained and subjected to immunoprecipitation with cyclin B1 and securin to analyze the presence or absence of separase-myc. As a result, separase having a small molecular weight, i.e., cleaved separase, is observed.

T1 sequence (P60330 whole entry): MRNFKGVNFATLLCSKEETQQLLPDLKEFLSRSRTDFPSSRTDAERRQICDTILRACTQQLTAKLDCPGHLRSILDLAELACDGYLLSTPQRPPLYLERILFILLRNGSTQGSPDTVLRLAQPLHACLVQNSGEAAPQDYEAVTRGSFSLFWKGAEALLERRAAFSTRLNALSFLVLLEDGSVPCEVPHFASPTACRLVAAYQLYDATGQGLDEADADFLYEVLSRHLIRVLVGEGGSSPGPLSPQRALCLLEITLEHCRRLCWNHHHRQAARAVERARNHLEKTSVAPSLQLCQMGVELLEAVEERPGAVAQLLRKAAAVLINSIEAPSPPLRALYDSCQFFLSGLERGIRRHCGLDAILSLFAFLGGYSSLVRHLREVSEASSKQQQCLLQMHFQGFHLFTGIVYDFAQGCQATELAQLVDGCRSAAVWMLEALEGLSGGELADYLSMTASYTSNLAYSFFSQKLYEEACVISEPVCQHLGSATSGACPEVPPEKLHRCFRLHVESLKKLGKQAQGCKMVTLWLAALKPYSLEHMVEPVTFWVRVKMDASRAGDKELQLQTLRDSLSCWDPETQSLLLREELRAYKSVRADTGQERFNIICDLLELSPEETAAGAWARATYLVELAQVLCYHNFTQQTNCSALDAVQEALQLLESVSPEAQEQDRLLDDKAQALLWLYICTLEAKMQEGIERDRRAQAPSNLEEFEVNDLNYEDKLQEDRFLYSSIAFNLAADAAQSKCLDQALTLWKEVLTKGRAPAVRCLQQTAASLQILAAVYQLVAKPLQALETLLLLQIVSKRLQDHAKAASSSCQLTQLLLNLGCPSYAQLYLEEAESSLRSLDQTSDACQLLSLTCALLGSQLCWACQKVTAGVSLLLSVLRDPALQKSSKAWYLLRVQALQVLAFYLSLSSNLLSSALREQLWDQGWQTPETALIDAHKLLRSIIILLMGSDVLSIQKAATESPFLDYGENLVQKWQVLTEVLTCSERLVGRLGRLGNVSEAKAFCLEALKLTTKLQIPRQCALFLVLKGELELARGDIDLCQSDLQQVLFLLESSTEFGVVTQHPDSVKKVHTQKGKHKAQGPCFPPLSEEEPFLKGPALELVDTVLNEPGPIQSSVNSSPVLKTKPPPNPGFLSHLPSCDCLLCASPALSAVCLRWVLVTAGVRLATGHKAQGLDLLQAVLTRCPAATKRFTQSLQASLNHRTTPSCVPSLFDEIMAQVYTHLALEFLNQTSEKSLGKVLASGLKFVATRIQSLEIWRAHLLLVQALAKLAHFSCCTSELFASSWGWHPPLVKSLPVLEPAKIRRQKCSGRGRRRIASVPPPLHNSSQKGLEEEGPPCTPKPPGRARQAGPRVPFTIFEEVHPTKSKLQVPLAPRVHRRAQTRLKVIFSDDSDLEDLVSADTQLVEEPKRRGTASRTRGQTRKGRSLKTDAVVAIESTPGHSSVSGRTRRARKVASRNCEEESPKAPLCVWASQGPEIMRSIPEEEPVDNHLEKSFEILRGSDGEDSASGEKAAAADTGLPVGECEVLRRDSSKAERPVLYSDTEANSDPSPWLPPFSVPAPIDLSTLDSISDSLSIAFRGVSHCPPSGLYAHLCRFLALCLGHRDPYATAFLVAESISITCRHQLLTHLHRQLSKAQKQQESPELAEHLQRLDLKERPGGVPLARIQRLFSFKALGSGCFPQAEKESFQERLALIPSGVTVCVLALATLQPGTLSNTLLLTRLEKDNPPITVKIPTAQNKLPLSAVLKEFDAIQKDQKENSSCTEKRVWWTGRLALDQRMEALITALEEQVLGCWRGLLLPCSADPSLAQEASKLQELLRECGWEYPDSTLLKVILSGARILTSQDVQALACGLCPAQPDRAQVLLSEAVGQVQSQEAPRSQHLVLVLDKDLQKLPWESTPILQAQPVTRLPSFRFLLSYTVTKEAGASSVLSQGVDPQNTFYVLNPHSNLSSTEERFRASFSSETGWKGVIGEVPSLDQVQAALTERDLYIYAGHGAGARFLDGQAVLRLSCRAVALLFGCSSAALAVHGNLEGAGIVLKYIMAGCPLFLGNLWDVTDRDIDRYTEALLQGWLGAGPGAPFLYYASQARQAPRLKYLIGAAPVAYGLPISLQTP

B1: securin (other, UniProt O95997 2-202, looked up)
chain: ATLIYVDKENGEPGTRVVAKDGLKLGSGPSIKALDGRSQVSTPRFGKTFDAPPALPKATRKALGTVNRATEKSVKTKGPLKQKQPSFSAKKMTEKTVKAKSSVPASDDAYPEIEKFFPFNPLDFESFDLPEEHQIAHLPLSGVPLMILDEERELEKLFQLGPPSPVKMPSPPWESNLLQSPSSILSTLDVELPPVCCDIDI
notes: Endogenous protein in HeLa cell extracts
binding result: binds
